# T1: CD73 on the cell surface of Calu6 cells (Homo sapiens, UniProt P21589)
# T1 construct: endogenous in cells; host or cells: Calu6
# T1 sequence (P21589 27-549): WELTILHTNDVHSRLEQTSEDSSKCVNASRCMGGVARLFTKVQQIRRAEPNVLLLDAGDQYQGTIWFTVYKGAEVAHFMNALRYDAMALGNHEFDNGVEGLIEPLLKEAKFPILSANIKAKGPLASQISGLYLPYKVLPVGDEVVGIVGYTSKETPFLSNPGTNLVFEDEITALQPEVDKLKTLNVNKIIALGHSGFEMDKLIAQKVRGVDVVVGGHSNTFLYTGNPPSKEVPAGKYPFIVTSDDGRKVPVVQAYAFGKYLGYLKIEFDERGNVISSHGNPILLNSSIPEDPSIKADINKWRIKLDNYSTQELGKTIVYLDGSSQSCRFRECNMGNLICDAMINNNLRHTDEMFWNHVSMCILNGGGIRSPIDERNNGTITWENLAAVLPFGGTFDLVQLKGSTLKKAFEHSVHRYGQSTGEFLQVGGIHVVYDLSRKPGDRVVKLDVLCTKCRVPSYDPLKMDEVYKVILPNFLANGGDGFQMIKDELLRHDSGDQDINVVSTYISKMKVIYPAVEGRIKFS
# What was measured:
# [1] = target: T1, CD73 on the cell surface of Calu6 cells; experiment: Induction of endocytosis of CD73 antigen on cell surface (Calu6 cells, flow cytometry); type: cell-based; conditions: Example 5, 1 μg/mL, 5 h, 37° C. vs 4° C.
# Method: The antibody-drug conjugate 1 and the antibody-drug conjugate 2 prepared in Example 1 and the 900698 naked antibody were diluted to 1 μg/mL with a PBS solution, with 2 replicate wells set up for each concentration. Calu6 cells in the logarithmic growth phase were taken and prepared into a cell suspension at 2×10^5 cells/mL. The cell suspension was then added at 100 μL (about 20000 cells) per well to a 96-well U-bottom plate and centrifuged at 300 g for 3 min, and then the supernatant was discarded. Then, the diluted antigen-binding proteins were each added at 100 μL/well to resuspend the cells, and the mixture was mixed uniformly and incubated at 4° C. for 30 min. […] After the incubation was completed, the cells were washed twice and centrifuged at 300 g for 3 min, and the fluorescence intensity was detected by flow cytometry.
# The endocytosis efficiency of monoclonal antibodies 900698 and 900725 was compared through an endocytosis assay, with the procedures as follows: Anti-CD73 antigen-binding proteins such as the CD73 positive control antibody BMS-986179, 900698, and 900725 were diluted to 1 μg/mL with a PBS solution, with 2 replicate wells set up for each concentration. […] After the incubation was completed, the cells were washed twice and centrifuged at 300 g for 3 min, and the fluorescence intensity was detected by flow cytometry. […]
# [2] = system: BxPC-3 human pancreatic cancer cells; experiment: BxPC3 CDX pancreatic cancer mouse efficacy model; type: in vivo, NPG mice; conditions: for inhibition of growth of BxPC-3 pancreatic cancer: 1 mg/kg i.p. BIW, 6 doses, FIG. 7; for inhibitory effect on tumor growth compared with 900698, Oleclumab and Uliledlimab: conjugate 1 mg/kg vs antibodies 5 mg/kg, i.p. BIW
# Method: NPG mice were used to establish a BxPC-3 pancreatic cancer animal model for assaying the efficacy of the test antibodies. The BxPC-3 human pancreatic cancer cells used in this example were incubated in an RPMI-1640 medium supplemented with 10% FBS in an incubator at 37° C. with 5% CO2. Before continuous cell culturing for ten generations, 100 μL of PBS containing about 1×10^7 BxPC-3 cells was mixed uniformly with an equal volume of Matrigel. The mixture was then inoculated by subcutaneous injection into 18 NPG mice on the right side of the back near the axilla, with an inoculation volume of about 200 μL. The mice were anesthetized with 2%-5% isoflurane prior to the inoculation. On the day of inoculation, 1.0×10^7 PBMCs (100 μL) were injected via the tail vein. When the tumors grew to an average size of about 50-80 mm^3, the 18 tumor-bearing mice were randomly divided into 3 groups of 6 based on tumor volume and body weight.
# Oleclumab is an anti-CD73 monoclonal antibody developed by AstraZeneca, currently in Phase 2 clinical trials. Uliledlimab is an anti-CD73 monoclonal antibody developed by I-Mab Biopharma, currently in Phase 1 clinical trials. The amino acid sequence of the heavy chain of 900543 is as set forth in SEQ ID NO. 45, and the amino acid sequence of the light chain of 900543 is as set forth in SEQ ID NO. 46. The amino acid sequence of the heavy chain of Oleclumab is as set forth in SEQ ID NO. 47, and the amino acid sequence of the light chain of Oleclumab is as set forth in SEQ ID NO. 48. The amino acid sequence of the heavy chain of Uliledlimab is as set forth in SEQ ID NO. 49, and the amino acid sequence of the light chain of Uliledlimab is as set forth in SEQ ID NO. 50.
Molecule,Endocytosis efficiency (%) [1],inhibition of growth of BxPC-3 pancreatic cancer [2],"inhibitory effect on tumor growth compared with 900698, Oleclumab and Uliledlimab [2]"
"Antibody-drug conjugate 1: 900698 antibody cysteine-conjugated to SN-38 via Mc-VC-PAB-DMEDA-PEG linker, DAR about 7.8 (conjugate) VH: QVQLVESGGGLVKPGGSLRLSCAASGFTFSKYAMSWIRQAPGKGLEWVAEISSGGGYINYADSVKGRFTISRDNAKNSLYLQMNSLRAEDTAVYYCARAIYYYGSSYNYYAMDYWGQGTTVTVSS VL: DIQMTQSPSSLSASVGDRVTITCRASQDVGTAEAWYQQKPGKAPKLLIYWASTRHTGVPSRFSGSGSGTDFTLTISSLQPEDFATYYCQQYSSYPLTFGQGTKLEIK",about 95%,significantly inhibit the growth,superior
"Antibody-drug conjugate 2: 900698 antibody cysteine-conjugated to SN-38 via MP2-VC-PAB-DMEDA-PEG linker, DAR about 7.8 (conjugate) VH: QVQLVESGGGLVKPGGSLRLSCAASGFTFSKYAMSWIRQAPGKGLEWVAEISSGGGYINYADSVKGRFTISRDNAKNSLYLQMNSLRAEDTAVYYCARAIYYYGSSYNYYAMDYWGQGTTVTVSS VL: DIQMTQSPSSLSASVGDRVTITCRASQDVGTAEAWYQQKPGKAPKLLIYWASTRHTGVPSRFSGSGSGTDFTLTISSLQPEDFATYYCQQYSSYPLTFGQGTKLEIK",about 95%,significantly inhibit the growth,superior
